Test results reported in IntAct's records for PubMed 31515488.

B1: Beta-taxilin (Homo sapiens), Q8N3L3 (parent)
chain: MEANHSEQLSAERQSTPPGDSSSLPSHNGLEKEDGQDSPTPVQPPEKEASVHPDISEELNRQLEDIINTYGSAASTAGKEGSARASEQPENAESPDNEDGDCEETTEEAGREPVASGEPPTVKEPVSNKEQKLEKKILKGLGKEANLLMQNLNKLQTPEEKFDFLFKKYAELLDEHRTEQKKLKLLQKKQVQIQKEKDQLQGEHSRAILARSKLESLCRELQRHNKTLKEEALQRAREEEEKRKEITSHFQSTLTDIQGQIEQQSERNMKLCQENTELAEKLKSIIDQYELREEHLDKIFKHRELQQKLVDAKLEQAQEMMKEAEERHKREKEYLLNQAAEWKLQAKVLKEQETVLQAQLTLYSGRFEEFQSTLTKSNEVFATFKQEMDKTTKKMKKLEKDTATWKARFENCNKALLDMIEEKALRAKEYECFVMKIGRLENLCRALQEERNELHKKIRDAEISEKDDQSQHNSDEEPESNVSVDQEIDAEEVNSVQTAVKNLATAFMIIHHPESTPHQSKETQPEIGSSQESADAALKEPEQPPLIPSRDSESPLPPLTPQAEAEGGSDAEPPSKASNSPAGLGAETQCEGLPVGAQADQASWKPEAEASGQAPQAPTEASLQKMEADVPAPACAAEEHVAAMVPACEPSRQPPRAAAEELPVGASAGPQPRNVADTNLEGVD
partner: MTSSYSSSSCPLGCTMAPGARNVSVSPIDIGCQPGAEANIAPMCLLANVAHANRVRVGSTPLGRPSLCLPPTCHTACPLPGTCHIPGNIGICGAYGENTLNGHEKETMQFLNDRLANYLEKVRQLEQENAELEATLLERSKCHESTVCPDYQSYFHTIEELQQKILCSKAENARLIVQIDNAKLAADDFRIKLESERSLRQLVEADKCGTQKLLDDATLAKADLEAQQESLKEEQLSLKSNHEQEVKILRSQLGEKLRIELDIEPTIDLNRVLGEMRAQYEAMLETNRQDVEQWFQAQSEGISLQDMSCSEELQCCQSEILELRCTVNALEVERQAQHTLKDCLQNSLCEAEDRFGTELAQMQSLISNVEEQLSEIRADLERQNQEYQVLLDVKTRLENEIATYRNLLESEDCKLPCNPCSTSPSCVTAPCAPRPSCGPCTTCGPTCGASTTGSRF
B2: Pyridine nucleotide-disulfide oxidoreductase domain-containing protein 1 (Homo sapiens), Q8WU10 (parent)
chain: MEAARPPPTAGKFVVVGGGIAGVTCAEQLATHFPSEDILLVTASPVIKAVTNFKQISKILEEFDVEEQSSTMLGKRFPNIKVIESGVKQLKSEEHCIVTEDGNQHVYKKLCLCAGAKPKLICEGNPYVLGIRDTDSAQEFQKQLTKAKRIMIIGNGGIALELVYEIEGCEVIWAIKDKAIGNTFFDAGAAEFLTSKLIAEKSEAKIAHKRTRYTTEGRKKEARSKSKADNVGSALGPDWHEGLNLKGTKEFSHKIHLETMCEVKKIYLQDEFRILKKKSFTFPRDHKSVTADTEMWPVYVELTNEKIYGCDFIVSATGVTPNVEPFLHGNSFDLGEDGGLKVDDHMHTSLPDIYAAGDICTTSWQLSPVWQQMRLWTQARQMGWYAAKCMAAASSGDSIDMDFSFELFAHVTKFFNYKVVLLGKYNAQGLGSDHELMLRCTKGREYIKVVMQNGRMMGAVLIGETDLEETFENLILNQMNLSSYGEDLLDPNIDIEDYFD
partner: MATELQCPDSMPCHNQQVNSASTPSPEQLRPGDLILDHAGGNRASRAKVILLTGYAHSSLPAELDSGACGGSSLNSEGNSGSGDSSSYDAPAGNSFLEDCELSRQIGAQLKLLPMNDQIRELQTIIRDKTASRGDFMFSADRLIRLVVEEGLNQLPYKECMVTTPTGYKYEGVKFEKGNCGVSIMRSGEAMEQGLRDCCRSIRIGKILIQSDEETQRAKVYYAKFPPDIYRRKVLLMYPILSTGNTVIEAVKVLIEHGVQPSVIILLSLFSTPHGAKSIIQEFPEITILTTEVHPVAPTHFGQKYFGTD
B3: DCC-interacting protein 13-alpha (Homo sapiens), Q9UKG1 (parent)
chain: MPGIDKLPIEETLEDSPQTRSLLGVFEEDATAISNYMNQLYQAMHRIYDAQNELSAATHLTSKLLKEYEKQRFPLGGDDEVMSSTLQQFSKVIDELSSCHAVLSTQLADAMMFPITQFKERDLKEILTLKEVFQIASNDHDAAINRYSRLSKKRENDKVKYEVTEDVYTSRKKQHQTMMHYFCALNTLQYKKKIALLEPLLGYMQAQISFFKMGSENLNEQLEEFLANIGTSVQNVRREMDSDIETMQQTIEDLEVASDPLYVPDPDPTKFPVNRNLTRKAGYLNARNKTGLVSSTWDRQFYFTQGGNLMSQARGDVAGGLAMDIDNCSVMAVDCEDRRYCFQITSFDGKKSSILQAESKKDHEEWICTINNISKQIYLSENPEETAARVNQSALEAVTPSPSFQQRHESLRPAAGQSRPPTARTSSSGSLGSESTNLAALSLDSLVAPDTPIQFDIISPVCEDQPGQAKAFGQGGRRTNPFGESGGSTKSETEDSILHQLFIVRFLGSMEVKSDDHPDVVYETMRQILAARAIHNIFRMTESHLLVTCDCLKLIDPQTQVTRLTFPLPCVVLYATHQENKRLFGFVLRTSSGRSESNLSSVCYIFESNNEGEKICDSVGLAKQIALHAELDRRASEKQKEIERVKEKQQKELNKQKQIEKDLEEQSRLIAASSRPNQASSEGQFVVLSSSQSEESDLGEGGKKRESEA
partner: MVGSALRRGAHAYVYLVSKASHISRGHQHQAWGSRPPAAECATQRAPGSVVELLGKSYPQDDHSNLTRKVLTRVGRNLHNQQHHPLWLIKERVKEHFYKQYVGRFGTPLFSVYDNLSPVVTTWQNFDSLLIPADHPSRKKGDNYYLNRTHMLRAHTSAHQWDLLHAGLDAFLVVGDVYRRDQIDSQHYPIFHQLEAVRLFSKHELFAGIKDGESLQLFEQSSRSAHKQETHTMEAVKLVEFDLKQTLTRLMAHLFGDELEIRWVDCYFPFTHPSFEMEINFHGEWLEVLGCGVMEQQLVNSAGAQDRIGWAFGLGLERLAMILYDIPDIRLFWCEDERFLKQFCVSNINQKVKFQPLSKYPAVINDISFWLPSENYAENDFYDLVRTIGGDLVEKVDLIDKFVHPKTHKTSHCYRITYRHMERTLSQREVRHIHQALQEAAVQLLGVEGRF
B4: Maspardin (Homo sapiens), Q9NZD8 (parent)
chain: MGEIKVSPDYNWFRGTVPLKKIIVDDDDSKIWSLYDAGPRSIRCPLIFLPPVSGTADVFFRQILALTGWGYRVIALQYPVYWDHLEFCDGFRKLLDHLQLDKVHLFGASLGGFLAQKFAEYTHKSPRVHSLILCNSFSDTSIFNQTWTANSFWLMPAFMLKKIVLGNFSSGPVDPMMADAIDFMVDRLESLGQSELASRLTLNCQNSYVEPHKIRDIPVTIMDVFDQSALSTEAKEEMYKLYPNARRAHLKTGGNFPYLCRSAEVNLYVQIHLLQFHGTKYAAIDPSMVSAEELEVQKGSLGISQEEQ
partner: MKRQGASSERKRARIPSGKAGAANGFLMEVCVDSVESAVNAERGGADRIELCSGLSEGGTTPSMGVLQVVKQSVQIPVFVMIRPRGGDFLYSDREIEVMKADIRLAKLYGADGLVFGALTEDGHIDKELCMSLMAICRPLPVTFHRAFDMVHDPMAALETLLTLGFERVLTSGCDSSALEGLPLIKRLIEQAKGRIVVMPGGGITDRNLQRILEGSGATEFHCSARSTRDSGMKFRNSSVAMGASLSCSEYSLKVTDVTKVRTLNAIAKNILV

Variants of: B1
Conditions: with krt38_human KRT38, O76015

Row | effect of a mutation on the interaction | Variant
1 | with no effect | I527T

Variants of: B2
Conditions: with upp_human UPRT

Row | effect of a mutation on the interaction | Variant
2 | with no effect | R374K

Variants of: B3
Conditions: with syfm_human FARS2, O95363

Row | effect of a mutation on the interaction | Variant
3 | with no effect | E67G
4 | with no effect | E643Q

Variants of: B4
Conditions: with cutc_human CUTC

Row | effect of a mutation on the interaction | Variant
5 | with no effect | A180T
6 | disrupting interaction strength | H272D
